Results from patent US20200199241A1 (Chugai, published 2020).
Residue numbers refer to the chain shown, from its start.

T1: FcγRIIb (human, UniProt P31994 43-217, limits assumed)
T1 construct: also called FcgRIIb; FcγIIB
T1 sequence: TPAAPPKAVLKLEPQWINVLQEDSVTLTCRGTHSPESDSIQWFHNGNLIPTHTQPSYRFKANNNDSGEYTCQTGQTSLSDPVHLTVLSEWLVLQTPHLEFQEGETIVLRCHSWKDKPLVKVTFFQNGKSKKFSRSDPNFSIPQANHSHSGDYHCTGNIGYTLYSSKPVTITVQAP

T2: FcγRIIa type H (human, UniProt P12318 36-217)
T2 construct: also called FcγRIIaH; FcγRIIH
T2 sequence: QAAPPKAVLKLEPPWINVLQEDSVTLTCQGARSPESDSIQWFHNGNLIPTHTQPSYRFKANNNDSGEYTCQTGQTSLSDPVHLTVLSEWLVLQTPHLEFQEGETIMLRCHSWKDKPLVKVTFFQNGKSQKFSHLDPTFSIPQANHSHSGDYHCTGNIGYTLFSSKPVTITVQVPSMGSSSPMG

B1: IL6R-2B253/IL6R-L (antibody, human IgG1)
heavy: QVQLQESGPGLVKPSETLSLTCAVSGHSISHDHAWSWVRQPPGEGLEWIGFISYSGITNYNPSLQGRVTISRDNSKNTLYLQMNSLRAEDTAVYYCARSLARTTAMDYWGEGTLVTVSSASTKGPSVFPLAPSSKSTSGGTAALGCLVKDYFPEPVTVSWNSGALTSGVHTFPAVLQSSGLYSLSSVVTVPSSSLGTQTYICNVNHKPSNTKVDKKVEPKSCDKTHTCPPCPAPDLLGGDSVFLFPPKPKDTLMISRTPEVTCVVVDVSHEDPEVKFNWYVDGVEVHNAKTKPREEQYNSTYRVVSVLTVLHQDWLNGKEYKCKMSNKALPAPIEKTISKAKGQPREPQVYTLPPSRDELTKNQVSLTCLVKGFYPSDIAVEWESNGQPENNYKTTPPVLDSDGSFFLYSKLTVDKSRWQQGNVFSCSVMHEALHNHYTQESLSLSP
light: DIQMTQSPSSLSASVGDRVTITCRASQDISSYLNWYQQKPGKAPKLLIYYTSRLHSGVPSRFSGSGSGTDFTFTISSLQPEDIATYYCQQGNTLPYTFGQGTKVEIK
notes: IgG1; Fc variant of IL6R-B3; copies: 2 + 2
B2: IL6R-BP084/IL6R-L (antibody, human IgG1)
heavy: B1 heavy with D235E, A332K
light: B1 light
notes: as for B1
B3: IL6R-BP082/IL6R-L (antibody, human IgG1)
heavy: B1 heavy with M325V, A332K
light: B1 light
notes: as for B1
B4: IL6R-BP195/IL6R-L (antibody, human IgG1)
heavy: B1 heavy with L236Y, G239D, H270D, P273G, Y298D, M325V, K328A, A332K
light: B1 light
notes: as for B1
B5: IL6R-BP131/IL6R-L (antibody, human IgG1)
heavy: B1 heavy with G239D, M325V, A332K
light: B1 light
notes: as for B1
B6: IL6R-2B261/IL6R-L (antibody, human IgG1)
heavy: B1 heavy with Y298D, M325V
light: B1 light
notes: as for B1
B7: IL6R-BP085/IL6R-L (antibody, human IgG1)
heavy: B1 heavy with D235E, G239D, M325V, A332K
light: B1 light
notes: as for B1
B8: IL6R-BP190/IL6R-L (antibody, human IgG1)
heavy: B1 heavy with D235E, G239D, H270D, P273G, M325V, A332K
light: B1 light
notes: as for B1
B9: IL6R-BP211/IL6R-L (antibody, human IgG1)
heavy: B1 heavy with H270D, P273G, M325V, K328A, A332R
light: B1 light
notes: as for B1
B10: IL6R-BP083/IL6R-L (antibody, human IgG1)
heavy: B1 heavy with D235E, Y298D, M325V, A332K
light: B1 light
notes: as for B1
B11: IL6R-BP086/IL6R-L (antibody, human IgG1)
heavy: B1 heavy with D235E, M325V, K328A, A332K
light: B1 light
notes: as for B1
B12: IL6R-BP087/IL6R-L (antibody, human IgG1)
heavy: B1 heavy with D235E, L236Y, M325V, A332K
light: B1 light
notes: as for B1
B13: IL6R-BP181/IL6R-L (antibody, human IgG1)
heavy: B1 heavy with P273G, M325V, K328A, A332K
light: B1 light
notes: as for B1
B14: IL6R-BP151/IL6R-L (antibody, human IgG1)
heavy: B1 heavy with L236Y, G239D, M325V, K328A, A332R
light: B1 light
notes: as for B1
B15: IL6R-BP088/IL6R-L (antibody, human IgG1)
heavy: B1 heavy with D235E, G239D, M325V, K328A, A332K
light: B1 light
notes: as for B1
B16: IL6R-BP191/IL6R-L (antibody, human IgG1)
heavy: B1 heavy with H270D, P273G, M325V, K328A, A332K
light: B1 light
notes: as for B1
B17: IL6R-BP146/IL6R-L (antibody, human IgG1)
heavy: B1 heavy with D235E, L236Y, G239D, M325V, K328A
light: B1 light
notes: as for B1
B18: IL6R-BP210/IL6R-L (antibody, human IgG1)
heavy: B1 heavy with D235E, G239D, H270D, P273G, M325V, A332R
light: B1 light
notes: as for B1
B19: IL6R-BP152/IL6R-L (antibody, human IgG1)
heavy: B1 heavy with L236Y, G239D, Y298D, M325V, K328A, A332R
light: B1 light
notes: as for B1
B20: IL6R-BP201/IL6R-L (antibody, human IgG1)
heavy: B1 heavy with G239D, P273G, M325V, A332R
light: B1 light
notes: as for B1
B21: IL6R-BP188/IL6R-L (antibody, human IgG1)
heavy: B1 heavy with G239D, H270D, P273G, M325V, A332K
light: B1 light
notes: as for B1
B22: IL6R-BP205/IL6R-L (antibody, human IgG1)
heavy: B1 heavy with P273G, Y298D, M325V, A332R
light: B1 light
notes: as for B1
B23: IL6R-BP204/IL6R-L (antibody, human IgG1)
heavy: B1 heavy with P273G, M325V, K328A, A332R
light: B1 light
notes: as for B1
B24: IL6R-BP212/IL6R-L (antibody, human IgG1)
heavy: B1 heavy with H270D, P273G, Y298D, M325V, A332R
light: B1 light
notes: as for B1
B25: IL6R-BP176/IL6R-L (antibody, human IgG1)
heavy: B1 heavy with M325V, K328D, A332K
light: B1 light
notes: as for B1
B26: IL6R-BP193/IL6R-L (antibody, human IgG1)
heavy: B1 heavy with H270D, P273G, M325V, A332K
light: B1 light
notes: as for B1
B27: IL6R-BP202/IL6R-L (antibody, human IgG1)
heavy: B1 heavy with D235E, G239D, P273G, M325V, K328A, A332R
light: B1 light
notes: as for B1
B28: IL6R-BP178/IL6R-L (antibody, human IgG1)
heavy: B1 heavy with G239D, P273G, M325V, A332K
light: B1 light
notes: as for B1
B29: IL6R-BP130/IL6R-L (antibody, human IgG1)
heavy: B1 heavy with A332K
light: B1 light
notes: as for B1

biological target: T3, FcγRIIIa type V (human, UniProt P08637 17-208, limits assumed); assay: SPR (Biacore), bound amount, IL6R-BF648/IL6R-L = 100
T3 construct: also called FcγRIIIaV; FcgRIIIaV
T3 sequence (P08637 other isoform, or with tags, fused parts or gaps limits assumed): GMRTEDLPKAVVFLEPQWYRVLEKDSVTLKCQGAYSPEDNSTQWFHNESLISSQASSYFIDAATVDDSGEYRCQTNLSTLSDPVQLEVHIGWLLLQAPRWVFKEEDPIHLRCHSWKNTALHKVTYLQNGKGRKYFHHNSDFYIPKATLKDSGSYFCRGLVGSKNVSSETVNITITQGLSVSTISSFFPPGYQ
Experimental: (§1) According to the following method, relative binding activities were calculated for the results of analyzing interactions with the respective FcγRs.

| relative binding activity | Binder |
| --- | --- |
| 126 % of control | B1 |
| 106 % of control | B2 |
| 67 % of control | B3 |
| 221 % of control | B4 |
| 118 % of control | B5 |
| 87 % of control | B6 |
| 104 % of control | B7 |
| 155 % of control | B8 |
| 87 % of control | B9 |
| 107 % of control | B10 |
| 123 % of control | B11 |
| 158 % of control | B12 |
| 122 % of control | B13 |
| 221 % of control | B14 |
| 122 % of control | B15 |
| 142 % of control | B16 |

biological target: T1, FcγRIIb; assay: as above
Experimental: as §1

| relative binding activity | Binder |
| --- | --- |
| 156 % of control | B1 |
| 141 % of control | B2 |
| 136 % of control | B3 |
| 156 % of control | B17 |
| 115 % of control | B6 |
| 152 % of control | B7 |
| 187 % of control | B18 |
| 178 % of control | B19 |
| 165 % of control | B9 |
| 122 % of control | B10 |
| 137 % of control | B11 |
| 137 % of control | B12 |
| 186 % of control | B20 |
| 179 % of control | B21 |
| 167 % of control | B22 |
| 165 % of control | B23 |
| 173 % of control | B24 |
| 147 % of control | B25 |
| 173 % of control | B26 |
| 185 % of control | B27 |
| 161 % of control | B15 |
| 179 % of control | B28 |

biological target: T4, FcγRIa (human, UniProt P12314 16-292, limits assumed); assay: as above
T4 construct: also called FcgRIa; CD64
T4 sequence (P12314 16-292 limits assumed): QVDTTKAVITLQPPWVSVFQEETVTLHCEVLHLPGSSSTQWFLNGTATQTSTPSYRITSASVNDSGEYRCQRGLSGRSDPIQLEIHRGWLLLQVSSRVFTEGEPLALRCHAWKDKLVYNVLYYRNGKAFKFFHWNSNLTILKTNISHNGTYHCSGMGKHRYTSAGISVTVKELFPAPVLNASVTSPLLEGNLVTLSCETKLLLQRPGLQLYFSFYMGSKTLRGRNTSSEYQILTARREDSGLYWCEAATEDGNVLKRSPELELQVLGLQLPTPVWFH
Experimental: as §1

| relative binding activity | Binder |
| --- | --- |
| 155 % of control | B1 |
| 109 % of control | B2 |
| 74 % of control | B3 |
| 66 % of control | B4 |
| 33 % of control | B5 |
| 100 % of control | B6 |
| 19 % of control | B7 |
| 50 % of control | B8 |
| 57 % of control | B18 |
| 34 % of control | B19 |
| 128 % of control | B9 |
| 50 % of control | B10 |
| 72 % of control | B11 |
| 33 % of control | B12 |
| 104 % of control | B29 |
| 57 % of control | B20 |
| 74 % of control | B21 |
| 97 % of control | B22 |
| 117 % of control | B24 |
| 102 % of control | B25 |
| 113 % of control | B26 |
| 39 % of control | B14 |
| 43 % of control | B27 |
| 25 % of control | B15 |
| 51 % of control | B28 |
| 125 % of control | B16 |

biological target: T2, FcγRIIa type H; assay: as above
Experimental: as §1

| relative binding activity | Binder |
| --- | --- |
| 207 % of control | B1 |
| 162 % of control | B2 |
| 106 % of control | B3 |
| 203 % of control | B17 |
| 344 % of control | B4 |
| 253 % of control | B5 |
| 91 % of control | B6 |
| 158 % of control | B7 |
| 224 % of control | B8 |
| 279 % of control | B18 |
| 548 % of control | B19 |
| 91 % of control | B10 |
| 116 % of control | B11 |
| 179 % of control | B12 |
| 224 % of control | B29 |
| 359 % of control | B20 |
| 150 % of control | B13 |
| 108 % of control | B22 |
| 137 % of control | B23 |
| 135 % of control | B24 |
| 128 % of control | B25 |
| 154 % of control | B26 |
| 621 % of control | B14 |
| 285 % of control | B27 |
| 166 % of control | B15 |
| 259 % of control | B28 |
| 145 % of control | B16 |
